Substrate in this data set: Nc1ncnc2c1ncn2[C@@H]1O[C@H](COP(=O)(O)OP(=O)(O)OP(=O)(O)O)[C@@H](O)[C@H]1O
Briefly: ATP:PPi exchange steady-state kinetics. Format: biochemical, Pseudomonas aeruginosa. Particulars: Mg2+ active region of the catalytic domain formed by the three structural motifs.

B1: Aspartyl-tRNA synthetase (AspRS) (Pseudomonas aeruginosa PAO1) (protein)
chain: MMRSHYCGQLNESLDGQEVTLCGWVHRRRDHGGVIFLDVRDREGLAQVVFDPDRAETFAKADRVRSEFVVKITGKVRLRPEGARNPNMASGSIEVLGYELEVLNQAETPPFPLDEYSDVGEETRLRYRFIDLRRPEMAAKLKLRARITSSIRRYLDDNGFLDVETPILGRPTPEGARDYLVPSRTYPGHFFALPQSPQLFKQLLMVAGFDRYYQIAKCFRDEDLRADRQPEFTQIDIETSFLDESDIIGITEKMVRQLFKEVLDVEFDEFPHMPFEEAMRRYGSDKPDLRIPLELVDVADQLKEVEFKVFSGPANDPKGRVAALRVPGAASMPRSQIDDYTKFVGIYGAKGLAYIKVNERAKGVEGLQSPIVKFIPEANLNVILDRVGAVDGDIVFFGADKAKIVCDALGALRIKVGHDLKLLTREWAPMWVVDFPMFEENDDGSLSALHHPFTSPKCTPAELEANPGAALSRAYDMVLNGTELGGGSIRIHDKSMQQAVFRVLGIDEAEQEEKFGFLLDALKYGAPPHGGLAFGLDRLVMLMTGASSIREVIAFPKTQSAGDVMTQAPGSVDGKALRELHIRLREQPKAE
The Km is the concentration of substrate that gives half-maximal velocity. Take B1: the Km worked out at 495 µM.

The record behind these values is article PMC5820116 (SLAS discovery : advancing life sciences R & D, 2017).
